These results are taken from patent US20140348829A1 (CYTODYN, published 2014).

Test [1] has as its target feline LFA-1 (CD11a/CD18 heterodimer) (feline). As to the kind of experiment: cell binding assay on feline MCH-4 cells, CHO supernatant, HRP anti-feline IgG.
Test [2] shares this target. Briefly: cell binding assay on feline MCH-4 cells, purified antibody; against chimeric #1.
Test [3] has the same target. As to the kind of experiment: cell binding assay on feline MCH-4 cells, purified antibody.
For test [4] the target is unchanged. As to the kind of experiment: cell binding assay on feline MCH-4 cells, CHO supernatant; against chimeric #1.
The target in test [5] is feline LFA-1 (CD11a/CD18 heterodimer) (feline, UniProt A0ABI8A8D3 24-1171; A0ABI7ZVN3 67-787). As to the kind of experiment: cell binding assay on feline MCH-4 cells, CHO supernatant, HRP anti-feline IgG.

Where a chain is given by its changes, count along the chain named.

B1: Felinized HC 3+Felinized LC 2 (#15) antibody: 7301 (Felinized HC 3) + 7303 (Felinized LC 2) (antibody, IgG1)
heavy: QVQLVQSGAEVRKPGASVKIFCKASGYTFTSYYIHWLRQTPEQGREWIGWIYVGDGNTRYNEKFQGRLTLTADKSTSTAYMELSSLRSADTAIYFCARGGNGYFDYWGQDTLVTVSSDIVMTQTPLSLSVTPGEPASISCRASQDVSTALNWYLQKPGQSPRLLIYWASNRHSGVPDRFSGSGSGTDYTLRISRVEADDVGVYYCQQHYSSSLTFGPGTKLEI
light: B1 heavy with K13T, L37V, T40S, E42A, I48M, R59K, K63R, I93M, D110G, T111A
Take B1: the Relative antigen binding (normalized to parental antibody) (relative to parental) in test [1] was determined as 0.3. The Average fold change over chimeric in test [2] was 0.76 fold. In test [3], this molecule returned an OD450 at 0.1 ug of 0.86 OD450 and an OD450 at 1 ug of 1.29 OD450. Also, the fold less affinity than the chimeric in test [4] is 3 fold.

B2: antibody #6: 7299 (Felinized HC 1) + 7302 (Felinized LC 1) (antibody, IgG1)
heavy: B1 heavy with R45L, I48M, E62Q
light: B1 heavy
Take B2: the Relative antigen binding (normalized to parental antibody) (relative to parental) in test [1] was 0.05.

B3: antibody #14: 7301 (Felinized HC 3) + 7302 (Felinized LC 1) (antibody, IgG1)
heavy: B1 heavy
light: B1 heavy
notes: Fully felinized, feline IgG1/kappa; tested as CHO supernatant
For the molecule B3, in test [5], the “Relative antigen binding (normalized to parental antibody)” value was 0.06 relative to parental.

B4: antibody #16: 7301 (Felinized HC 3) + 7304 (Felinized LC 3) (antibody)
heavy: B1 heavy
light: B1 heavy with K13T, L37V, T40S, E42A, I48M, R59K, K63R, I93M, D110G, T111A
For the molecule B4, the Relative antigen binding (normalized to parental antibody) (relative to parental) in test [1] came out at 0.05.

B5: antibody #10: 7300 (Felinized HC 2) + 7302 (Felinized LC 1) (antibody)
heavy: B1 heavy with R45L, I48M, E62Q
light: B1 heavy
For the molecule B5, the Relative antigen binding (normalized to parental antibody) (relative to parental) in test [1] turned out to be 0.05.
